The target of data set [1] is T1, Ctf13;Skp1;Cep3ΔN (Saccharomyces cerevisiae;Saccharomyces …, UniProt P35203;P52286;P40969 1-478;1-194;47-608, ||). As to the kind of experiment: EMSA; DNA 1.6 uM; EMSA: 25 mM HEPES pH 8.0, 200 mM KCl, 2 mM DTT, 10% glycerol, 0.02% NP-40, 10 mM MgCl2, 10 uM ZnCl2; room temperature 45 min; native PAGE at 4 C. The following applies: protein: recombinant;recombinant;recombinant; tags: C-terminal CBP;;N-terminal His; copies: 1;1;2; label: fluorescent label, singly or doubly labeled.

A further data set addresses Cep3ΔN (Saccharomyces cerevisiae, UniProt P40969 47-608). Described as above. The conditions noted are these: protein: recombinant; tags: N-terminal His; chain copies: 2; label: fluorescent label, singly or doubly labeled.
The target of the next data set is Cep3 full length (Saccharomyces cerevisiae, UniProt P40969 1-608). As to the kind of experiment: EMSA; DNA 1.6 uM, protein 6.4 uM; binds tightly; EMSA: 25 mM HEPES pH 8.0, 200 mM KCl, 2 mM DTT, 10% glycerol, 0.02% NP-40, 10 mM MgCl2, 10 uM ZnCl2; room temperature 45 min; native PAGE at 4 C. The conditions noted are these: protein: recombinant; tags: N-terminal His; chain copies: 2; label: fluorescent label, singly or doubly labeled. In general terms: In EMSA bound probe runs differently from free probe, usually more slowly.

Data set [2] has as its target T1, Ctf13;Skp1;Cep3ΔN. As to the kind of experiment: competition; 80 uM unlabeled competitor, 50x; competes labeled CDEIII; EMSA: 25 mM HEPES pH 8.0, 200 mM KCl, 2 mM DTT, 10% glycerol, 0.02% NP-40, 10 mM MgCl2, 10 uM ZnCl2; room temperature 45 min; native PAGE at 4 C. The following applies: protein: recombinant;recombinant;recombinant; tags: C-terminal CBP;;N-terminal His; copies: 1;1;2.

T1 sequence (P35203 whole entry, stated change not applied, chain 1 of 3): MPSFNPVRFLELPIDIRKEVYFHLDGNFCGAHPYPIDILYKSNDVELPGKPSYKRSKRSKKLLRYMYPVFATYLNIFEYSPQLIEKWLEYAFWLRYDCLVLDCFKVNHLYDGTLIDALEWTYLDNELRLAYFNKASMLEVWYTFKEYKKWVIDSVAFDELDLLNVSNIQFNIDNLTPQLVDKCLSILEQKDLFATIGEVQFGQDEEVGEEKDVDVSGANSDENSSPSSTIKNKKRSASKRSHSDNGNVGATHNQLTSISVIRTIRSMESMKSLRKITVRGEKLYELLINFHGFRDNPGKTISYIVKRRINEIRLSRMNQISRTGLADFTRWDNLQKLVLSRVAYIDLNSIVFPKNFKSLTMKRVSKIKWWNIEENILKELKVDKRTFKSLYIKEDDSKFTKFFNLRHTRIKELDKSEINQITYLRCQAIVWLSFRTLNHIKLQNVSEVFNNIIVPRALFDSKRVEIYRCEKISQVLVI
T1 sequence (P52286 whole entry, stated change not applied, chain 2 of 3): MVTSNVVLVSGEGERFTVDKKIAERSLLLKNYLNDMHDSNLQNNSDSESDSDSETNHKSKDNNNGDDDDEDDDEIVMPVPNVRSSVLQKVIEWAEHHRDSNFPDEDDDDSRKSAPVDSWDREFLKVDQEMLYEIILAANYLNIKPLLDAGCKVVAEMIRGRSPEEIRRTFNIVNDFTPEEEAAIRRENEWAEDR
T1 sequence (P40969 47-608, stated change not applied, chain 3 of 3): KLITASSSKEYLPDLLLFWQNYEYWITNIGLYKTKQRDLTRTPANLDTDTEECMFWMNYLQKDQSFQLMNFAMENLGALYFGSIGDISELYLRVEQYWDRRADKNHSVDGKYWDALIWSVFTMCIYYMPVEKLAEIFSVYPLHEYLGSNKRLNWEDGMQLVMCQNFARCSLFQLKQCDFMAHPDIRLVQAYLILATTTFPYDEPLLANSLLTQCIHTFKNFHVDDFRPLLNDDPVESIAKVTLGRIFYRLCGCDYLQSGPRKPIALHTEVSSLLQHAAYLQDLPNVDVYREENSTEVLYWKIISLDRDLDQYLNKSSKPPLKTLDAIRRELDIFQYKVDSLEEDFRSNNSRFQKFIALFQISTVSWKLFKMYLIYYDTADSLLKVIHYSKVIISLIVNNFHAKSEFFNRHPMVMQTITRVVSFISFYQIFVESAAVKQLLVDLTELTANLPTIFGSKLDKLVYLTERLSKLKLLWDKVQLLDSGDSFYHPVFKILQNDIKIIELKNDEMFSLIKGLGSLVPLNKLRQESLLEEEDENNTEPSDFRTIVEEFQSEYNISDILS
Chain of Cep3ΔN (P40969 47-608, stated change not applied): as the sequence (P40969 47-608, stated change not applied, chain 3 of 3) above
Chain of Cep3 full length (P40969 whole entry): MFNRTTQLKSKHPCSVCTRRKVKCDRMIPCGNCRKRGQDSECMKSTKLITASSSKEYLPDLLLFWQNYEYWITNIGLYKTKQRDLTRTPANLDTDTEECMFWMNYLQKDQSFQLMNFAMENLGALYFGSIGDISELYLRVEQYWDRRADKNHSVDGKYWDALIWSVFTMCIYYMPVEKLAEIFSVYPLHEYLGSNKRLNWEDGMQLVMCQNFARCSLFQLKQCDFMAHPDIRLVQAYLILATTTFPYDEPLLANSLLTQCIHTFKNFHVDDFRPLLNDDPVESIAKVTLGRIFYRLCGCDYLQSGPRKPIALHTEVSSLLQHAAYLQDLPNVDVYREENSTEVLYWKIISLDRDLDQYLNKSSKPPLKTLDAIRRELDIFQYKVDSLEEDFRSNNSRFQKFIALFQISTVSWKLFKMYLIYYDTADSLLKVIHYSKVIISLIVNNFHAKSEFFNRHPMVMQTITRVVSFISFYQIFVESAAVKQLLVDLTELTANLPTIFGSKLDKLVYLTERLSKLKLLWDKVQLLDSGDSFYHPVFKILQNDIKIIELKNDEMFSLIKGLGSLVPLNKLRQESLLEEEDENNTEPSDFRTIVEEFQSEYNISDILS

B1: CDEIII labeled (dsDNA)
DNA 1: AATATTAGTGTATTTGATTTCCGAAAGTTAAA
DNA 2: TTTAACTTTCGGAAATCAAATACACTAATATT
Consider B1, for which the binding result with Ctf13;Skp1;Cep3ΔN [1] is “binds”; with Cep3ΔN it was “no binding”; with Cep3 full length, “binds”.

B2: CDEIII unlabeled competitor (dsDNA)
DNA 1: AATATTAGTGTATTTGATTTCCGAAAGTTAAA
DNA 2: TTTAACTTTCGGAAATCAAATACACTAATATT
As to B2, the binding result with Ctf13;Skp1;Cep3ΔN [2] was “binds”.

Values taken from article PMC6077249, “Insights into Centromere DNA Bending Revealed by the Cryo-EM Structure of the Core Centromere Binding Factor 3 with Ndc10”.
